Measured values from patent publication US20190263882A1.
Where two headings read alike, the source gives them in different places.

Key:
[1] = target: T1, hLGR7 (UL-hLGR7-Cre-Luc reporter cell line) (human ('hLGR7')) (UniProt Q9HBX9); experiment: cell-based or functional assay
T1 sequence (looked up): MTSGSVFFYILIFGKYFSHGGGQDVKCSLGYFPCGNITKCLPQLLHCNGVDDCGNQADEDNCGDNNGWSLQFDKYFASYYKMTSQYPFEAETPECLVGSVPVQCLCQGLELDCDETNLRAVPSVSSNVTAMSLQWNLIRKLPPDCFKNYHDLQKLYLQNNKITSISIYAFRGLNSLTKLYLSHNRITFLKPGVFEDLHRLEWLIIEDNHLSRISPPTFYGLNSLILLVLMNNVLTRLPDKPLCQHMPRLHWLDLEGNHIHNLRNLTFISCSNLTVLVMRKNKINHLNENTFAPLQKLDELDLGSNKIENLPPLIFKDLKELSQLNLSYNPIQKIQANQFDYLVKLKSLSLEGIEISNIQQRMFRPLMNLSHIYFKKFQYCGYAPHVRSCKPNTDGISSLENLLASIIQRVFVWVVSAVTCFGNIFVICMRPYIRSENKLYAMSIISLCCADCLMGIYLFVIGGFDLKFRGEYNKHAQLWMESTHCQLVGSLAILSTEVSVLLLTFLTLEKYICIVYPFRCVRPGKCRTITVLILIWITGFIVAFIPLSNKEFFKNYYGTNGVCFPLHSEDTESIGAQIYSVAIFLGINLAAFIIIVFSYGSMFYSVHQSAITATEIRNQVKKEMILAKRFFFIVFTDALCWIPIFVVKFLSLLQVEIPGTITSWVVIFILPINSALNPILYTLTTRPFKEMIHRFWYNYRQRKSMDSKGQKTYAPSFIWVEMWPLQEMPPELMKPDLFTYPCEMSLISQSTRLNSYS

relaxin receptor (LGR7) [2] = target: T2, relaxin receptor (LGR7); experiment: cell-based or functional assay
T2 sequence (Q9HBX9 whole entry, species assumed, looked up): T1 sequence (looked up)

relaxin receptor (LGR7) [3] = target: T2, relaxin receptor (LGR7); experiment: cell-based or functional assay; remark: listed apart in the source
RSV F protein = RSV F protein (UniProt P03420); experiment: ELISA, 100 ng/well RSV F protein coated, HRP anti-human IgG (Fc specific), QuantaBlu fluorescence (10 min)
Chain of RSV F protein (P03420 26-524): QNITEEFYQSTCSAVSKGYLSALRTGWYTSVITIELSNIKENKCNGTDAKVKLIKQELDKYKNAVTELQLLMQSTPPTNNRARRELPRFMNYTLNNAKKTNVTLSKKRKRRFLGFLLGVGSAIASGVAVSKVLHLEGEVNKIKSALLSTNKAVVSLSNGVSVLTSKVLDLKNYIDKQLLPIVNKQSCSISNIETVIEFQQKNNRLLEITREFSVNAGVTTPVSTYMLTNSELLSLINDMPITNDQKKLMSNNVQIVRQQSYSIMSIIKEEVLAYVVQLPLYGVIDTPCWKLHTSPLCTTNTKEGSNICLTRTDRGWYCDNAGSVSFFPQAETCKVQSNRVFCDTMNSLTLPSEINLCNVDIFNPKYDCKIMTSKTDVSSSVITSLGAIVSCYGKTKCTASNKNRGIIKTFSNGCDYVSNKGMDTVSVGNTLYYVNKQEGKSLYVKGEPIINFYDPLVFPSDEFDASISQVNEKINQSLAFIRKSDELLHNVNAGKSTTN

Row | EC50, UL-hLGR7-Cre-Luc reporter cell line [1] [nM] | SA [1] [units/µg] | EC50, CRE-luciferase reporter assay (relaxin receptor (LGR7) [2]) [nM] | EC50, CRE-luciferase reporter assay (relaxin receptor (LGR7) [3]) [nM] | Substance | Kd (RSV F protein) [nM]
1 | 0.02 | 1000 | 0.0223 | 0.022 | relaxin-2 peptide (from UniProt P04090 25-185) (ligand) | –
2 | – | – | – | – | Herceptin (antibody) | 1350
